Reference: publication PMC6504948

Target: CD19 on CD19-positive tumor cells (Nalm6, Raji) (human (endogenous in Nalm6 and Raji)) (UniProt P15391)
Sequence of UniProt P15391 (P15391 20-556): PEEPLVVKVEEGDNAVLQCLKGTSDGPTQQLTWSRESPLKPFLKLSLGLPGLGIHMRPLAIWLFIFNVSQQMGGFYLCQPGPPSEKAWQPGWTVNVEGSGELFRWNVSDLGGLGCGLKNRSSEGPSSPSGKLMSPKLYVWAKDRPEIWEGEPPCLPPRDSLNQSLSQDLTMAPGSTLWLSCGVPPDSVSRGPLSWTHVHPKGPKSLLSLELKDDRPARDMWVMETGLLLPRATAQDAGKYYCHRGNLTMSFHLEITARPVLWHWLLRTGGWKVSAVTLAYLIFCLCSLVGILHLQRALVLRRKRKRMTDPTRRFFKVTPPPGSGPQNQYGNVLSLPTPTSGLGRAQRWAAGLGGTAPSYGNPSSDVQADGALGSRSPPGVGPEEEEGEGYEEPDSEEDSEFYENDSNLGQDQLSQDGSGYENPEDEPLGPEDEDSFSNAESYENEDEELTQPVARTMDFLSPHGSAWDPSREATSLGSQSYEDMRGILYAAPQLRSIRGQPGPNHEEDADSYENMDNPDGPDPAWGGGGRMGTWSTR

In the case of “γ-TRuC (CD19-specific T cell receptor fusion construct: FMC63 scFv fused to full-length human CD3γ) (from UniProt P09693 23-182)”, the conversion of transduced primary T cells into a CD69+/CD25+ phenotype after overnight co-culture with Nalm6 cells is reported as 50%.
